In data set [1] the target is Acanthamoeba castellani actin (filaments) (Acanthamoeba castellani).
The target of data set [2] is Taxol-stabilized microtubules (tubulin, Cytoskeleton T240) (UniProt P02550). Description: co-sedimentation.
Data set [3] concerns the molecule itself. In words: SEC.

Changes are numbered by the printed parent chain. In names and notes the source's numbering stands.

B1: Wild-type CapuCT (C-terminal Capu construct, residues 467–1059) (domain or fragment)
chain: VSDNESAKEDGEKPHAVAPPPPPPPPPLHAFVAPPPPPPPPPPPPPPLANYGAPPPPPPPPPGSGSAPPPPPPAPIEGGGGIPPPPPPMSASPSKTTISPAPLPDPAEGNWFHRTNTMRKSAVNPPKPMRPLYWTRIVTSAPPAPRPPSVANSTDSTENSGSSPDEPPAANGADAPPTAPPATKEIWTEIEETPLDNIDEFTELFSRQAIAPVSKPKELKVKRAKSIKVLDPERSRNVGIIWRSLHVPSSEIEHAIYHIDTSVVSLEALQHMSNIQATEDELQRIKEAAGGDIPLDHPEQFLLDISLISMASERISCIVFQAEFEESVTLLFRKLETVSQLSQQLIESEDLKLVFSIILTLGNYMNGGNRQRGQADGFNLDILGKLKDVKSKESHTTLLHFIVRTYIAQRRKEGVHPLEIRLPIPEPADVERAAQMDFEEVQQQIFDLNKKFLGCKRTTAKVLAASRPEIMEPFKSKMEEFVEGADKSMAKLHQSLDECRDLFLETMRFYHFSPKACTLTLAQCTPDQFFEYWTNFTNDFKDIWKKEITSLLNELMKKSKQAQIESRRNVSTKVEKSGRISLKERMLMRRSKN
By koff is commonly meant the rate constant with which the complex falls apart. A high value points to a short-lived complex. As usually defined, the Kd is the free concentration of one partner at which half of the binding sites on the other are occupied at equilibrium, for simple one-to-one binding. A lower Kd goes with a tighter complex. Usually stoichiometry N stands for a count of units in the complex or per binding partner. Molecule B1 had an off-rate constant (koff) in data set [1] of 0.000245 s⁻¹. In data set [2], this molecule displayed a Kd of 150 nM and a stoichiometry N (α/β dimers per binding site) of 1.42. Also, the “stoichiometry N” value in data set [3] was determined as 2.

B2: CapuCT-I751T (domain or fragment)
chain: B1 chain with I285T
In data set [1], B2 gave a koff of 0.00277 s⁻¹.

B3: CapuCT-K586M (domain or fragment)
chain: B1 chain with K120M
Consider B3, for which the koff in data set [1] is 0.000852 s⁻¹. Besides, in data set [2], the Kd came to 250 nM and the stoichiometry N (α/β dimers per binding site) came out at 0.88. For the same molecule, the “stoichiometry N” value in data set [3] amounted to 2.

B4: CapuCT-P597L (domain or fragment)
chain: B1 chain with P131L
In data set [1], B4 showed a koff of 0.0021 s⁻¹. In data set [2], the Kd was 300 nM and the stoichiometry N (α/β dimers per binding site) is 0.88. In addition, the “stoichiometry N” value in data set [3] stood at 2.

B5: CapuCT-D662N (domain or fragment)
chain: B1 chain with D196N
As for B5, in data set [1], the koff is 0.000297 s⁻¹. In data set [2], this molecule displayed a Kd of 250 nM and a stoichiometry N (α/β dimers per binding site) of 0.87. Moreover, the “stoichiometry N” value in data set [3] was determined as 2.

B6: CapuCT-D854N (domain or fragment)
chain: B1 chain with D388N
In turn, B6 had an off-rate (koff) in data set [1] of 0.000592 s⁻¹. In data set [2], this molecule gave a Kd of 100 nM and a stoichiometry N (α/β dimers per binding site) of 1.48. The “stoichiometry N” value in data set [3] was determined as 2.

B7: CapuCT-H977Y (domain or fragment)
chain: B1 chain with H511Y
For B7, the off-rate (koff) in data set [1] was 0.0013 s⁻¹. In data set [2], this molecule registered a Kd of 180 nM and a stoichiometry N (α/β dimers per binding site) of 0.95. Moreover, the “stoichiometry N” value in data set [3] worked out at 2.

(Values after publication PMC4436832 (Molecular Biology of the Cell, 2015).)
